Experimental data from PMC8791620 (Science Advances, 2022).

T1: Trs120 (3xFLAG-tagged, subunit of TRAPPII) (S. cerevisiae, UniProt Q04183 1-1289)
T1 sequence: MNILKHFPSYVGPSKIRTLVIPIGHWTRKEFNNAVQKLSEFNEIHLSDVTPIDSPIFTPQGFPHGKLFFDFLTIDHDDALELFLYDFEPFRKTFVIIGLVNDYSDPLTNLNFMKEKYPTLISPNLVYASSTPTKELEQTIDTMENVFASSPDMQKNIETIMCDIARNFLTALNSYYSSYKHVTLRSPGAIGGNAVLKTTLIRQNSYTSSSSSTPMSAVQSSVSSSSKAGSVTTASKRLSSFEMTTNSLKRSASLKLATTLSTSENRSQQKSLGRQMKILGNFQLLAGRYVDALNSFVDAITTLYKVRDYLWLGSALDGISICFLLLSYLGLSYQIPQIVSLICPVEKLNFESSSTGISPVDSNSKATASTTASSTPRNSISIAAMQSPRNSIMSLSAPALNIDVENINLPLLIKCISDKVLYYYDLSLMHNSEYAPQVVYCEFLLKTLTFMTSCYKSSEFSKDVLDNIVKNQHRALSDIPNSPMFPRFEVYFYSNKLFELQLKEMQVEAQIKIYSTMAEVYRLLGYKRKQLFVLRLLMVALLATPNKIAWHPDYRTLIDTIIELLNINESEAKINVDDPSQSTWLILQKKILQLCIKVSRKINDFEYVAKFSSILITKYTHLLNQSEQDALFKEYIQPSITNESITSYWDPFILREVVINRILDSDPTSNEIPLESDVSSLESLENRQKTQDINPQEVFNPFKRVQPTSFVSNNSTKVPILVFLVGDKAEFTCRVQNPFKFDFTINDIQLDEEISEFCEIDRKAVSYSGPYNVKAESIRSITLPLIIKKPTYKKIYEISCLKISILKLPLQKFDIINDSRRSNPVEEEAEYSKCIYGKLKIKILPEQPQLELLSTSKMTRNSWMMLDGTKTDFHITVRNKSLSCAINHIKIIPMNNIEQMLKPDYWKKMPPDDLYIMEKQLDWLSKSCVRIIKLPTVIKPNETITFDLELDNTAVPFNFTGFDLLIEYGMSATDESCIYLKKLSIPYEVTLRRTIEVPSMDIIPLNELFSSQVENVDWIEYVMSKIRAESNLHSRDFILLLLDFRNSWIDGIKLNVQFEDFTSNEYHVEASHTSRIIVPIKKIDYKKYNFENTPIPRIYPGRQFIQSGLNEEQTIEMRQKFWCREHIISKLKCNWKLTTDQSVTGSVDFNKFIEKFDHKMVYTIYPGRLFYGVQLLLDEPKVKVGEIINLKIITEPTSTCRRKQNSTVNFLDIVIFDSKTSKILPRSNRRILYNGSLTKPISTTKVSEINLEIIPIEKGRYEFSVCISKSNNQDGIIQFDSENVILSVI

T2: Trs23 (subunit of core TRAPP/TRAPPI in TRAPPII) (S. cerevisiae, UniProt Q03784 1-219)
T2 sequence (looked up): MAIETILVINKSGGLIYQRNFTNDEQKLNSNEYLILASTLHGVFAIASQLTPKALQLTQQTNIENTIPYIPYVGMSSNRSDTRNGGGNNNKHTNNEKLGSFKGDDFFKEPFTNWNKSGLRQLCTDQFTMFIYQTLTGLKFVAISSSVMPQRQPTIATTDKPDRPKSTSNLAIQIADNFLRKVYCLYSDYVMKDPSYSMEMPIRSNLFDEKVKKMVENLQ

T3: Bet3 (subunit of core TRAPP/TRAPPI in TRAPPII) (S. cerevisiae, UniProt P36149 1-193)
T3 sequence (looked up): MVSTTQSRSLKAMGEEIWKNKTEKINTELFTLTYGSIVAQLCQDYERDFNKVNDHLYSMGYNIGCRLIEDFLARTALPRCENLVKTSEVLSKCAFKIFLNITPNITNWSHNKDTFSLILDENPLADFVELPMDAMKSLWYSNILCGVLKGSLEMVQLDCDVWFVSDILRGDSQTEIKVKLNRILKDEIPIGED

B1: Trs31 (subunit of core TRAPP/TRAPPI in TRAPPII) (natural protein, S. cerevisiae, UniProt Q03337 1-283, looked up)
chain: MSQRIIQPSASDQQFPGKSDGYEYTVGPKQAITSEASTTYIPSRIYSESLLFKRQEASLSAMAFLFQEMISQLHRTCKTAGDFETKLSDYGHNIGIRLLELLNFRASVSPSSLPRASAFLSQNESSSKLSNASNSPGMLANSSTATSASANERLQEKQTESLSNYITKMRRRDLKILDILQFIHGTLWSYLFNHVSDDLVKSSERDNEYMIVDNFPTLTQFIPGENVSCEYFVCGIIKGFLFNAGFPCGVTAHRMPQGGHSQRTVYLIQFDRQVLDREGLRFG
B2: His-sumo-Ypt32 (wild type) (enzyme, S. cerevisiae, UniProt P51996 1-222, looked up)
chain: MSNEDYGYDYDYLFKIVLIGDSGVGKSNLLSRFTTDEFNIESKSTIGVEFATRTIEVENKKIKAQIWDTAGQERYRAITSAYYRGAVGALIVYDISKSSSYENCNHWLTELRENADDNVAVGLIGNKSDLAHLRAVPTDEAKNFAMENQMLFTETSALNSDNVDKAFRELIVAIFQMVSKHQVDLSGSGTNNMGSNGAPKGPTISLTPAPKEDKKKKSSNCC
B3: Bet5 (subunit of core TRAPP/TRAPPI in TRAPPII) (natural protein, S. cerevisiae, UniProt Q03630 1-159, looked up)
chain: MGIYSFWIFDRHCNCIFDREWTLASNSASGTINSKQNEEDAKLLYGMIFSLRSITQKLSKGSVKNDIRSISTGKYRVHTYCTASGLWFVLLSDFKQQSYTQVLQYIYSHIYVKYVSNNLLSPYDFAENENEMRGQGTRKITNRNFISVLESFLAPMVNQ

Assays:
[1] = target: T1, Trs120 (3xFLAG-tagged, subunit of …); assay: cross-linking
[2] = target: B1; assay: cryo-EM structure
[3] = target: T2, Trs23 (subunit of core TRAPP/TRAPPI in …); assay: cryo-EM structure
[4] = target: T3, Bet3 (subunit of core TRAPP/TRAPPI in …); assay: cryo-EM structure

B1
binding result [1]: binds

B2
binding result [2]: binds

B3
binding result [3]: binds
binding result [4]: binds
